# According to patent publication US6379959:
# T1: carboxypeptidase A
# T1 sequence (P00730 111-419, species assumed, looked up): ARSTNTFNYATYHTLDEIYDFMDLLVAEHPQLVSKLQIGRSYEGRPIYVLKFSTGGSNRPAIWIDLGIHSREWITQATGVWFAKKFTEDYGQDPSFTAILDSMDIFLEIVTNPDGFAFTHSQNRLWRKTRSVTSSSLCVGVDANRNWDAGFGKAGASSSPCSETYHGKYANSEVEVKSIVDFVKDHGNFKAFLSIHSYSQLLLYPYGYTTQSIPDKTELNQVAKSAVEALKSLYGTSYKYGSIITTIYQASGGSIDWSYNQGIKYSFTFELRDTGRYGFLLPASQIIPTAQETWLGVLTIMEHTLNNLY
# Molecular target: T1, carboxypeptidase A
# Test: carboxypeptidase inhibition (Ki); reference wild PCI
binder,measurement,value
EQHADPICNKPCKTHDDCSGAWFCQACWNSARTCGP [PCIdelY37V38G39],decrease of the inhibitory capacity against the wild form (orders of magnitude),3
